What was measured:
[1] = target: Mis16-Eic1 heterodimer (S. pombe) (UniProt O94244); assay: AUC
[2] = target: S. pombe Mis16 (S. pombe) (UniProt O94244); assay: ITC
[3] = target: Mis18 C-terminal helical domain (Mis18C) (S. pombe) (UniProt Q9P802); assay: AUC
[4] = target: Mis16-Eic1 heterodimer (S. pombe) (UniProt O94244); assay: AUC; remark: listed apart in the source
AUC = target: the molecule itself; assay: AUC
S. pombe Mis16 = target: T1, S. pombe Mis16 (S. pombe, UniProt O94244 1-430); assay: AUC
T1 sequence (looked up): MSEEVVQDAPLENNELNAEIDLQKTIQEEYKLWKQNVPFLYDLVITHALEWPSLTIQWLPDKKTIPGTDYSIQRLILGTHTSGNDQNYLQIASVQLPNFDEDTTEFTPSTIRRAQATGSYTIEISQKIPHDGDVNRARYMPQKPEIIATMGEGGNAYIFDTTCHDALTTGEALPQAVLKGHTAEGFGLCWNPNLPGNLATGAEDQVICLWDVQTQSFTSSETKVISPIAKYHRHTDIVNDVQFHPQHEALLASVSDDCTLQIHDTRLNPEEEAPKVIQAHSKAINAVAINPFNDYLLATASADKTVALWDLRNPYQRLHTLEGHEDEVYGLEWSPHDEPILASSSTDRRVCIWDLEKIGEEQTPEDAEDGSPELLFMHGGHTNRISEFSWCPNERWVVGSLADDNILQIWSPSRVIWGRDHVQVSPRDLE

In the case of “Mis18C fused to maltose binding protein (MBP-Mis18C) (domain or fragment)”, the stoichiometry N (MBP-Mis18C per Mis16-Eic1 heterodimer) [1] is reported as 2.

“Trx-Eic1-CT (wild-type) (from UniProt O42995 91-112) (domain or fragment)” showed a Kd [2] of 20.8 nM.

For “Mis18 C-terminal helical domain (Mis18C) (from UniProt Q9P802 1-194) (domain or fragment)”, the stoichiometry N (Mis18C per Mis16-Eic1 heterodimer) [1] was 2 and the stoichiometry N [3] was 2.

B1: S. pombe Mis18 (natural protein, UniProt Q9P802 1-194, looked up)
chain: MSQTETSHSGYIDFKKESQPSVFQCKKCFQIVGDSNAWVISHREYLSFTLSDAVENSVRVEDTFKRSDDGLCVYSELSCTRCNEVIGKVYNSTPIYLDDIRDMYTFSMDKLQAYQLGNKTVNPEGLTRYQVDLEMREDIIKLKSFCLSLYEKFELHDETLRSVKETISSLKKPKIEGKEGKKEKARTYSKRTRK
B1 was tested, and the stoichiometry N (Mis18 per Mis16-Eic1 heterodimer) [4] was 2 and the “stoichiometry N” value (AUC) was 4.

B2: S. pombe Eic1 (natural protein, UniProt O42995 1-112, looked up)
chain: MDLMPLEKARAIEIAFDNVFHNTKIPDNLQQFDAILKRLERRRFIPTENQKPRVYETELLVLRFREFGVKDNHNHPINLHSLRSKSLIRAQGKKLDLHNRVFLRRNVRAVKM
In the case of B2, the “stoichiometry N” value (S. pombe Mis16) is reported as 1 Eic1 per Mis16.
